{"source": "the DeepSol protein solubility set"}
{"assay": "soluble on expression in E. coli; label from the status in PepcDB or PDB records"}
{"sequence": "MAKEFLIELGTEELPPTQLRTLAEAFAANFEAELKGAELAHEGVKWFAAPRRLALKVAALAESQSDKVVEKRGPAVSAAFDAEGNPTKAAQGWARGCGITVDQADRMVTDKGEWLLFKQEVKGQPTSEIVVELAAKALANLPIAKPMRWGNKTTQFIRPVKTLTMLMGSDLIEGEILGVASSRTIRGHRFMGEKEFTIDSAEQYPAILEERGKVMADYEARKAIILADAQKAAAAVGGIADLEDDLVEEVTSLVEWPVVLTAKFEEEFLKVPSEALVYTMKGDQKYFPVYDENKKLLPNFIFVSNIESKEPRYVIEGNEKVVRPRLADAEFFFNTDRKRPLIDRLPELEQAIFQQQLGTIKDKTDRITELAGYIAEQIGADVEKSKRAGLLAKCDLMTSMVFEFTDTQGVMGMHYARHDGEAEEVAVALNEQYMPRFAGDELPSNGVSTAVAMADKLDTIVGIFGIGQAPKGSDPFALRRASLGVLRIIVEYGYNLDLVDLVAKAKSLFGDRLTNDNVEQDVIEFMLGRFRAWYQDEGFSVDIIQAVLARRPTK", "soluble on expression in E. coli": "not soluble"}
{"sequence": "MKRIFVQNRELVVPGTLLAQGPYKNGRGTFREGSRIYSTVIGLVDIKGNTIRVIPLEGPYIPEVGDNVIGKIVDVKFSSWVVDIGAPYLANLKIQDFTDEKIDLLRTDLRKFFDIGDIIYGKVKAITEVNNIDLTTKGMPFNGGPLKGGQIVKITPSRVPRVIGRGGSMINMIKKLTMTRIIVGQNGWIWVNGKNEALEKLAIEAILKIDRESHTKGLTDRIKSLLLSRLQELKEKGVIEEIPELEEEPQEETEVNNNDGETRRT", "soluble on expression in E. coli": "soluble"}
{"sequence": "AIAVFWGKPLASPRESPRAPGENGKRALHFCAVDEDFVRLFYSFFKSLVGKDVVVELKNDLSICGTLHSVDQYLNIKLTDISVTDPEKYPHMLSVKNCFIRGSVVRYVQLPADEVDTQLLQDAARKEALQQKQ", "soluble on expression in E. coli": "soluble"}
{"sequence": "IPELKDHLRIFRPRKLTLKGYRQHWVVFKETTLSYYKSQDEAPGDPIQQLNLKGCEVVPDVNVSGQKFCIKLLVPSPEGMSEIYLRCQDEQQYARWMAGCRLASKGRTMADSSYTSEVQAILAFLSLQRT", "soluble on expression in E. coli": "soluble"}
{"sequence": "MDVEAFYKISYGLYIVTSESNGRKCGQIANTVFQLTSKPVQIAVCLNKENDTHNAVKESGAFGVSVLELETPMEFIGRFGFRKSSEFEKFDGVEYKTGKTGVPLVTQHAVAVIEAKVVKECDVGTHTLFVGEAVDAEVLKDAEVLTYADYHLMKKGKTPRTATVYFESK", "soluble on expression in E. coli": "soluble"}
{"sequence": "MNEKFRTDLAHTFGIALEEQTDVLSFHDNDGHEWILECASQSEILFFYCYLLNSESIQINSILEMNSNRELLGMFFLSLKDDNILLNIAFPADKIDITEFANLMENGYLLKNEIIRSLSSRPTDFLP", "soluble on expression in E. coli": "not soluble"}
{"sequence": "MSLSNTPIELKGSSFTLSVVHLHEAEPEVIRQALEDKIAQAPAFLKHAPVVINVSGLESPVNWPELHKIVTSTGLRIIGVSGCKDASLKVEIDRMGLPLLTEGKEKAVRPAPVEPATPSEPPQNANPITKTRLIDVPVRSGQRIYAPQCDLIVTSHVSAGAELIADGNIHVYGMMRGRALAGASGDREAQIFCTHLTAELVSIAGVYWLSDKIPAEFYGKAARLRLADNALTVQPLNEGHHHHHH", "soluble on expression in E. coli": "soluble"}
{"sequence": "MFNCLGMGNRDFIEGASGATWVDLVLEGDSCLTIMANDKPTLDVRMINIEASQLAEVRSYCYHASVTDISTVARCPTTGEAHNEKRADSSYVCKQGFTDRGWGNGCGFFGKGSIDTCAKFSCTSKAIGRTIQPENIKYKVGIFVHGTTTSENHGNYSAQVGASQAAKFTVTPNAPSVTLKLGDYGEVTLDCEPRSGLNTEAFYVMTVGSKSFLVHREWFHDLALPWTSPSSTAWRNRELLMEFEGAHATKQSVVALGSQEGGLHQALAGAIVVEYSSSVMLTSGHLKCRLKMDKLALKGTTYGMCTEKFSFAKNPVDTGHGTVVIELSYSGSDGPCKIPIVSVASLNDMTPVGRLVTVNPFVATSSANSKVLVEMEPPFGDSYIVVGRGDKQINHHWHKAGSTLGKA", "soluble on expression in E. coli": "not soluble"}
{"sequence": "SNAMKELIKEHQKDINPALQLHDWVEYYRPFAANGQSANYIPALGKVNDSQLGICVLEPDGTMIHAGDWNVSFTMQSISKVISFIAACMSRGIPYVLDRVDVEPTGDAFNSIIRLEINKPGKPFNPMINAGALTIASILPGESAYEKLEFLYSVMETLIGKRPRIHEEVFRSEWETAHRNRALAYYLKETNFLEAEVEETLEVYLKQCAMESTTEDIALIGLILAHDGYHPIRHEQVIPKDVAKLAKALMLTCGMYNASGKYAAFVGVPAKSGVSGGIMALVPPSARREQPFQSGCGIGIYGPAIDEYGNSLTGGMLLKHMAQEWELSIF", "soluble on expression in E. coli": "soluble"}
{"sequence": "MAHHHHHHMSDLSTAHASQGYRFDPSRMNGCLHDTIIFKRLPSRLRHSTGSRTRSLRVNRPAVE", "soluble on expression in E. coli": "soluble"}
{"sequence": "APEWTEEDLSQLTRSMVKFPGGTPGRWEKIAHELGRSVTDVTTKAKQLKDSVTCSPGMV", "soluble on expression in E. coli": "soluble"}
{"sequence": "MGSDKIHHHHHHMVKAVVLLSGGLDSATVLAIARQQGYECYALSVSYGQRHGAELAAAKNLARSLGATAHKIIQVDLSTFGGSALIDKEREIPTDGVTPGIPSTYVPARNTIMLSIALAWAEVLGSGDIFIGVNAIDYSGYPDCRPEYIEAFETMANVATKAGIEGTRLAIHAPLMNLSKAEIIKRGGVLGVDYSMTVSCYQADDAGLACGVCDSCRLRRAGFESADVPDVTRYHAGFRQTPAS", "soluble on expression in E. coli": "not soluble"}
{"sequence": "TQQPIVTGTSVISMKYDNGVIIAADNLGSYGSLLRFNGVERLIPVGDNTVVGISGDISDMQHIERLLKDLVTENAYDNPLADAEEALEPSYIFEYLATVMYQRRSKMNPLWNAIIVAGVQSNGDQFLRYVNLLGVTYSSPTLATGFGAHMANPLLRKVVDRESDIPKTTVQVAEEAIVNAMRVLYYRDARSSRNFSLAIIDKNTGLTFKKNLQVENMKWDFAKDIKGYGTQKI", "soluble on expression in E. coli": "soluble"}
{"sequence": "MWASPSPSVTVEFLEADSRLGGREVSLCKVAGQPDIRCECGWLELQPTRRSVNYEVVSSGGVTQSAALVTADFQSAEERSRLTVTVQLSSLARDMRDGYHEGFGAGLNNLASVAGRTMVLERVIKVPRNIVWKAWMNEKTLPQWWGPEGFSCRTKRIDLRTGGEWVFDMIGPDGTVFPNHHRYVEIRPEERLAYTLLWGENGPKHADAWASFEDQDGATKVVLGMVFSTDAEFQQAKGFGAVELGQQTLGKLERFAKFFLEHHHHHH", "soluble on expression in E. coli": "soluble"}
{"sequence": "MAARPKLHYPNGRGRMESVRWVLAAAGVEFDEEFLETKEQLYKLQDGNHLLFQQVPMVEIDGMKLVQTRSILHYIADKHNLFGKNLKERTLIDMYVEGTLDLLELLIMHPFLKPDDQQKEVVNMAQKAIIRYFPVFEKILRGHGQSFLVGNQLSLADVILLQTILALEEKIPNILSAFPFLQEYTVKLSNIPTIKRFLEPGSKKKPPPDEIYVRTVYNIFRP", "soluble on expression in E. coli": "soluble"}
{"sequence": "MGTFATTYEKIQDFNWLTRFLHAGRYRKLLEVLETVQKDVGNRKVRILDIGCGPGTAVGHILERFDVEYVGIDYDPIFIDAARNRYGKNENCRFIVGDATDERLYETIQADIVIALETLEHIHLNRTVRVIEHVCTIIRPRIFLVTVPVEVGPAVWIKNWGSALMGYNRQSGNLKETFWAGLYRMDRVPAHHTSHQGFDWRCLAQLIRVNAPLREIRSLPFSFVPRLLSPNVALIAEPVKSTIDLANDDPEAWKINHGQTAFQRPHIVDETDAARHAKSLATWSMRLKGLLGMALATMPFAWHRWSYISISPGEAQSSHFLLTIDKHLLPPHQSIEGDTILLAAQAIVQRVSDASYLLT", "soluble on expression in E. coli": "not soluble"}
{"sequence": "MGSDKIHHHHHHMFLVCGEALFDIFTRADDGGSLNRLGFDAIAGGSPFNVAIGLRRLGVEAAFFAGLSTDYLGRRLRAVLEQETVNAEHLIEFDAPTTLAMVAVGSDGSPTYSFRGDGCADRQLRLEHLPELDERVRGIHVGSFSLVVQPIADTLLALVARESARRLISLDPNVRLNPAPDIQRWRTQIAAFAEHAHLIKVSDEDLHLLYPDSDPQQIAEGWLGKRTQLVIVTRGTQGASVFTRQHGTWSVPAKTVVTADTVGAGDTFQAALLTFLSERQLDTPQGLSTLSRETLDEMLNFAVGAAALTCTKVGPDLPYRHQLG", "soluble on expression in E. coli": "not soluble"}
{"sequence": "MSKILDVQGIVKRATELNDFGHLLEHVPYAKFIGMKVERFGDELIFKLPAKDDNIGNPILPAIHGGVIAGFMEMSAIVQLMVFMQTAKVPKVVDFSIDYLRAGLHKDSFAECRITRQGRRVANVSINCWQTNRKQLIATARAHFLIDLEHHHHHH", "soluble on expression in E. coli": "not soluble"}
{"sequence": "MEHSLPPYRLRRSPRAKYLRLLIRPDGIEVVVPTGLSDATVLAFVRQHGGWAQARLEELLARLAKLRQGQAERFPAEGGSVPLEGRETPLFIEETGGSRIRVSLEDQGLRLILPRTCGADRDRYVRDALFGWMKRRLPGRVTELIERHAPLHGLYPRQLRIKSMRTRWGSCGPANDINLNWLLGLAPLSVLEYVVVHELCHIRHRNHSRDFWELVAAHLPDWRQERQWLKAHGGGLIQRFDPAFRLEHHHHHH", "soluble on expression in E. coli": "soluble"}
{"sequence": "MGHRSRSNSRSQSRSRENSRGRSRSASKSPVYHRRERESSRSRSPRARYGGGGGGGGGGGRGRNQQYDRENPQPSKCLGVFNLSSYTTEKDLRDVFGEFGEINKCDLVYDRPSGNSRGFGFIYFNLIEDATAARDKLCNTDLDGHKIRVDFSLTKRGHSPTPGQYMGDRRGGGSSGGGRFGGGGGDRFNDRGSRGGDRYGGDRRGGGGGGGGDRYGGGGGDRYGGDRYGGGGGRRGSPDRRGGFRSGGGGGGYMRSGGGGGGPDRRDHRDNDRNGGGGGHRPYDPSFRRRVESYGSGNSGGGGGRRDRY", "soluble on expression in E. coli": "not soluble"}
{"sequence": "MGSDKIHHHHHHMSTLLRQHAEQQFAEELHELKQNETNPVPENWEMSPQSVVTYLMGGKLKNGFEVSPKYIGNRRLMEIAVATLVTDRALLLYGLPGTAKSWVSEHIAAAISGDSTLIVQGTAGTGEEAIRYGWNYARLLAEGPSVGALVQTPVMKAMQEGKIGRIEELTRIGSDVQDTLITILSEKTLPIPELNTEVQAIRGFNIIATANNRDKGVNDLSSALKRRFNTVILPLPDSIDEEIDIVRRRVESFEKVMQLPAEKPALEEIRRVVTIFRELRQGATADGKTKLKTPSGTLSTAEAISVVNNGLAMAGYFGDGEIHAEDLVSGILGAVVKDPVQDKVVWQEYMETVVKNRDGWKDIYRASRDMI", "soluble on expression in E. coli": "not soluble"}
{"sequence": "QCYHGNGQSYRGTFSTTVTGRTCQSWSSMTPHRHQRTPENYPNDGLTMNYCRNPDADTGPWCFTMDPSIRREYCNLTRC", "soluble on expression in E. coli": "soluble"}
{"sequence": "MRKISYRFVYNRKKSLNDRGTALVQVEAYLNKKKVYFSTHVYLRPEQWDVKRKIIKDHPNQDALNGMLNEFIIELEKKELSLWRQGKTITLSLIKEEFKSNTDASFLGFARKEIMSSQLKDSTKRNHLTTISLLQSFKPTIEFEDLTYNFVTDFEKNLYESGYQTNTVAKHMKHLKSFVNAAINKGYIDPNNYAFRRYKIKMKEGKHVFLLPEEMKKLEEVSLTGRNSCLEHTLDAFLFCCYTGLRYSDFVNLNEKNIVKMDGKLWLIFDSVKTGTEVKLPLNLLFEGKALTLLQKYQGKWSSFFSIK", "soluble on expression in E. coli": "not soluble"}
{"sequence": "MGSDKIHHHHHHMARPRKTIVSLDDTPYYHCCSRVVRKAFLCGIDSATGENFEHRRAWVEGRMFELATIFAMDICAYAVMSNHLHIVLRVDAEQAKQWTDKQVLIQWHKGFKGTLLTQRFVKDEVLDEFELKTVIDSVAVYRERLTSISWFIRALCEPIARMANKEDGCTGHFWEGRFKSQALLDEAAVLACMAYVDLNPVRAKMAATPETSDYTGIQRRINAALKGEQPNELLPFLGNERDNMPKGLMFSAKDYLLLVEDTGRIIRDDKRGAISRSSQYILDRLNIPTENWLKITKDFGHLFKGAVGSLQALSQYCEHLERKRRQSAANCQRWLCG", "soluble on expression in E. coli": "not soluble"}
